Source: patent US6716809B1, “Mage-A3 peptides presented by HLA class molecules” (priority 1997, dated 2004)

Tests used:
clone C3.43 = assay: IFN-γ production by CD4 clone C3.43 stimulated with peptide- or protein-pulsed EBV-B cells; assay type: cell-based, human; details: 20 μg/ml protein
Protocol: EBV-B cells from hemochromatosis patient 1981 (LB-1981-EBV) were incubated with 20 μg/ml of ovalbumin (OVA) or MAGE-A3 protein (bacteria) for 20 h. Ten thousand cells were distributed in microwells to which an aliquot of microculture C3 (˜4,000 effector cells) was added. Several clones were obtained from microculture C3, in particular CD4^+ clones LB1981-CD4 527/C3.22 (referred to hereafter as clone C3.22) and LB1981-CD4 527/C3.43 (referred to hereafter as clone C3.43). The clones C3.22 and C3.43 (˜3,000 cells) were stimulated with LB-1981-EBV incubated with 20 μg/ml of MAGE-A3 (˜16,000 cells) or transduced with a retrovirus coding for a fusion protein Ii-MAGE-A3 (˜20,000 cells). IFN-γ production in the supernatant was estimated after overnight culture by ELISA. They both recognized autologous EBV-B cells loaded with protein MAGE-A3 (bacteria) or transduced with a retrovirus encoding a truncated invariant chain (Ii)-MAGE-A3 fusion protein (FIG. 17). These (most probably twin) clones recognized cells expressing Ii-MAGE-A3 endogenously and therefore they are directed against a MAGE-A3-derived antigen and not against a contaminant in the batch of protein.
The antigenic peptides were identified as described above, except that the peptides were tested at a concentration of 1 μg/ml and that the test was performed in 100 μl. Peptides LGDPKKLLTQHFVQEN (SEQ ID NO:82), KKLLTQHFVQENYLEY (SEQ ID NO:83), TQHFVQENYLEYRQVP (SEQ ID NO:84) and VQENYLEYRQVPGSDP (SEQ ID NO:85) were tested. Autologous EBV-B cells were incubated for 1 h with 1 μg/ml of each of the peptides. Clone C3.43 (3,000 cells) was then cocultured with 20,000 peptide-pulsed cells for 20 h. IFN-γ production in the supernatant was measured by ELISA.
Patient LB1981 was typed DPB1*0401. To confirm that DPB1*0401 was the presenting HLA-DP molecule, additional EBV-B cell lines were tested. Autologous LB 1981-EBV or allogeneic-EBV-B cells were incubated for 1 h with 1 μg/ml of peptides, and washed. CD4 clones (3,000 cells) were then incubated for 20 h with 20,000 peptide-pulsed EBV-B cells. IFN-γ released in the supernatant was measured by ELISA. Those EBV-B cell lines expressing DPB1*0401 were able to present the MAGE-A3243-258 peptide to clone C3.22 (Table VII). DPB1*0401 is expressed in approximately 64% of Caucasians.

[1] = system: CD4 T cell clone LB 1555 CD4 436/B6.37; assay: Recognition of retrovirally transduced cells by CD4 T cell clone (IFN-γ ELISA); assay type: cell-based, human; details: overnight coculture
Protocol: The EBV transformed cells were infected by resuspending the cells in an infection cocktail and centrifugation. Target cells were resuspended in 60 mm tissue culture plates (Falcon) at a density of 1.0×10^6 cells in 4 ml infection cocktail. The plates were centrifuged for 2 hours at 32° C. and 1200 rcf in an IEC centrifuge, rotor type 228. For each plate to be transduced, 4 ml of […] was prepared by diluting the viral supernatant 1:2 in EBV cell growth medium and adding protamine sulfate to a final concentration of 6 μg/ml. Centrifugation was followed by another 2 hours of incubation in a humidified incubator at 37° C. and cells were transferred to 4 ml of target cell growth medium. This transduction cycle was carried out immediately after plating the cells and was repeated at 24 and 48 hours. […]
5000 T cells of LB705 CTL 434/1 or 3000 T cells of clone LB1555 CD4 436/B6.37 were washed and cultured overnight in the presence of 5000 retrovirally transduced EBV B cells of MZ2-EBV, or LG2-EBV B cells, in 100 μl ID medium containing 10% HS, AAG and 50 U/ml rh IL-2 in a round-bottom 96 wells plate. […] After three washings the plates were incubated with 50 μl per well horseradish peroxidase conjugated streptavidin (1:3000 in PBS/0.5% BSA) for 30 min at RT, which was detected by TMB substrate, and H2SO4 to stop the reaction. The optical density was read at 450 nm. […]

B1: MAGE-A3: MAGE-A3 protein; recombinant His-MAGE-A3 produced in E. coli, or expressed from MFG MAGE-A3 retrovirus in Example 6 (protein, listed as Homo sapiens)
chain: MPLEQRSQHCKPEEGLEARGEALGLVGAQAPATEEQEAASSSSTLVEVTLGEVPAAESPDPPQSPQGASSLPTTMNYPLWSQSYEDSSNQEEEGPSTFPDLESEFQAALSRKVAELVHFLLLKYRAREPVTKAEMLGSVVGNWQYFFPVIFSKASSSLQLVFGIELMEVDPIGHLYIFATCLGLSYDGLLGDNQIMPKAGLLIIVLAIIAREGDCAPEEKIWEELSVLEVFEGREDSILGDPKKLLTQHFVQENYLEYRQVPGSDPACYEFLWGPRALVETSYVKVLHHMVKISGGPHISYPPLHEWVLREGEE
modifications: His tag
recognition by clone C3.43 of autologous EBV-B cells loaded with protein (clone C3.43): recognized
recognition of transduced MZ2 EBV by CD4 clone 436/B6.37 (IFN-γ release) [1]: not recognized
